Reference: the supplement of paper PMC9732359
± gives the uncertainty stated by the source.

Experiment: protein stability index of a GFP-peptide fusion (yeast GPS) (PSI 1-4); higher = more stable; sorted into four equal gates, so the index is relative within each strain
Method in brief: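 Sequencing reads from sorted gates were used to score each peptide. The library consisted of tiled 17-residue yeast protein peptides fused downstream of GFP on a Cherry-expressing plasmid, pooled and carried in yeast. Mid-log cultures in leucine-free medium were split into four equal gates by GFP/Cherry ratio, and each gate's plasmids were PCR-amplified and Illumina-sequenced. The protein stability index adds up, over all gates, the read frequency multiplied by the gate number.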

Sequence | protein stability index (doa10∆) | protein stability index (pdr5∆) | protein stability index (san1∆) | protein stability index (ubr1∆)
EHVILGNGELYMDCLLY [SNU114] | 2.31 ± 0.053 | 2.73 ± 0.073 | 2.76 ± 0.086 | 2.67 ± 0.063
EIAFHLTLIFYDVLHDV [YML103C/NUP188] | 1.26 ± 0.072 | 1.47 ± 0.055 | 1.63 ± 0.17 | 1.99 ± 0.086
EIDHVEYYVMMDFANLW [SRB8] | 2.98 ± 0.067 | 2.69 ± 0.054 | 2.81 ± 0.056 | 2.92 ± 0.036
EIFAFGNIKDLPENIIL [CSN9] | 2.7 ± 0.066 | 2.92 ± 0.056 | 2.8 ± 0.043 | 2.93 ± 0.042
EIFKKGYIKNNKKIYQW [POP6] | 3.46 ± 0.24 |  |  | 
EIGPSPTLAGMAQRTLK [FAS2] | 2.392 ± 0.02 | 2.559 ± 0.021 | 2.546 ± 0.021 | 2.45 ± 0.015
EIIGGGSKSASKQTPQP [ISW2] | 2.95 ± 0.081 | 3.08 ± 0.092 | 2.97 ± 0.068 | 2.96 ± 0.06
EIILDFLQDKVQIKDVN [CSI1] | 3.12 ± 0.086 | 2.83 ± 0.055 | 2.36 ± 0.076 | 3.17 ± 0.051
EIKGASETPLQKTVNLK [RPN4] | 3 ± 0.12 | 3.42 ± 0.13 | 3.05 ± 0.1 | 3.14 ± 0.056
EIKKWTAVAFWSWDIAV [HRT1] | 1.23 ± 0.076 | 1.7 ± 0.073 | 1.65 ± 0.11 | 1.36 ± 0.044
EIKNWISDIPYVISLSY [YMR129W/POM152] |  |  |  | 1.27 ± 0.27
EILEHICYDVNDWQMLE [RPB2] | 2.84 ± 0.12 | 3.02 ± 0.086 | 2.74 ± 0.08 | 2.98 ± 0.081
EILGTAQSVGCRVDFKN [RPL12A] | 2.12 ± 0.06 | 2.25 ± 0.06 | 2.46 ± 0.11 | 2.94 ± 0.055
EILNIFKHISVKDFTSL [RPO21] | 2.41 ± 0.14 | 2.23 ± 0.12 | 2.14 ± 0.11 | 1.85 ± 0.046
EILNLSTQELQTRAKLL [RPT5] |  | 2.18 ± 0.18 | 3.04 ± 0.091 | 3.08 ± 0.085
EILTSVDVLGTHSQTGT [SIR4] | 2.93 ± 0.069 | 2.76 ± 0.063 | 2.87 ± 0.067 | 3.07 ± 0.037
EINTALNTLLVTSADSN [SWI1] | 2.05 ± 0.065 | 2.16 ± 0.048 | 2.38 ± 0.064 | 1.74 ± 0.065
EINWRHASFLCSFITQD [FAS1] | 2.1 ± 0.15 | 2.42 ± 0.12 | 2.17 ± 0.21 | 2.14 ± 0.15
EIPETGEYSVKLLKGAT [FAS2] | 3.18 ± 0.12 | 3.46 ± 0.089 | 3.32 ± 0.049 | 3.35 ± 0.078
EIPSEDQNEFLLERTRE [FAS2] | 3.33 ± 0.094 | 3.3 ± 0.12 | 3.35 ± 0.081 | 3.22 ± 0.079
EISSQIEILVKDNECSS [RRI2] | 1.5 ± 0.11 | 1.25 ± 0.15 |  | 1.16 ± 0.069
EITHPPSTTDDENGDKN [SWI3] | 3.09 ± 0.074 | 3.07 ± 0.072 | 3.19 ± 0.055 | 3.31 ± 0.061
EIYYDPDPRSTVIPEDE [RPO21] | 3.04 ± 0.11 | 3.07 ± 0.21 | 3.23 ± 0.14 | 3.06 ± 0.098
EKEEEAKEESDDDMGFG [RPP2B] | 3.05 ± 0.2 | 3.29 ± 0.14 | 2.84 ± 0.15 | 3.43 ± 0.07
EKERLESLTKEISAAHN [SMC3] | 3 ± 0.26 | 3.22 ± 0.15 | 2.79 ± 0.13 | 3.42 ± 0.19
EKFDLERVTALKNCKIS [SMC1] | 3.44 ± 0.2 |  | 3.38 ± 0.11 | 

Sequence | protein stability index (doa10∆) | protein stability index (pdr5∆) | protein stability index (san1∆) | protein stability index (ubr1∆)
EKFPNDVKLLNPIDIKR [RPP1] | 2.91 ± 0.062 | 2.97 ± 0.041 | 3.14 ± 0.038 | 3.01 ± 0.039
EKGPQVCAKLFGNIQKV [RPO21] | 2.63 ± 0.08 | 2.29 ± 0.057 | 2.29 ± 0.079 | 2.09 ± 0.06
EKKPASKAPAEKKPAAK [HTB1] | 3.13 ± 0.08 | 3.19 ± 0.063 | 3 ± 0.059 | 3.11 ± 0.054
EKLSSEIENLDKELRKT [YIL149C/MLP2] | 3.12 ± 0.11 | 3.21 ± 0.12 | 3.12 ± 0.069 | 3 ± 0.11
EKLTMVFQDNVYKIYNH [SIN4] | 2.08 ± 0.06 | 2.53 ± 0.053 | 1.6 ± 0.086 | 1.81 ± 0.037
EKPAVKSYASLLAQLNG [RPT3] | 2.8 ± 0.082 | 2.6 ± 0.097 | 2.81 ± 0.082 | 2.76 ± 0.057
EKPLVVPVKLEEIKTVD [RRP6] | 2.52 ± 0.13 | 2.42 ± 0.07 | 2.76 ± 0.16 | 2.38 ± 0.068
EKRWNDELELEDAIHIA [PRE8] | 3.35 ± 0.17 | 3.25 ± 0.1 | 3.26 ± 0.13 | 3.23 ± 0.2
EKSAYKFFHNGMIYNKL [FAS2] | 2.92 ± 0.086 | 2.81 ± 0.07 | 2.88 ± 0.071 | 2.83 ± 0.064
EKSKALESEIASSSAKL [SMC2] | 2.64 ± 0.071 | 2.96 ± 0.078 | 3.03 ± 0.043 | 2.97 ± 0.075
EKSQEVEYVDPTVNRVP [RPN7] |  |  |  | 3.74 ± 0.27
EKVRPTPGEVASKAIVQ [MCD1] | 3.16 ± 0.14 | 2.42 ± 0.084 | 1.55 ± 0.29 | 2.84 ± 0.25
EKVSSVLSALEGKSVDE [RPP2A] | 2.57 ± 0.077 | 2.09 ± 0.049 | 2.16 ± 0.078 | 1.87 ± 0.038
ELAVENPLAKTMADAVR [SEC65] | 3 ± 0.048 | 2.94 ± 0.039 | 2.5 ± 0.047 | 1.77 ± 0.026
ELCKKNESKIKELNEKI [RPN7] | 3.2 ± 0.12 | 2.73 ± 0.098 | 2.27 ± 0.11 | 2.47 ± 0.13
ELEHLTKKSKLESTKAE [DSN1] | 3.37 ± 0.1 | 3.08 ± 0.081 | 3.32 ± 0.095 | 3.13 ± 0.063
ELEKKYHGNECEINYYE [SRB8] | 3.04 ± 0.11 | 3.19 ± 0.086 | 3.26 ± 0.064 | 3.17 ± 0.066
ELIIDKVTCSSNSSSSP [MED1] | 2.72 ± 0.058 | 2.75 ± 0.065 | 2.79 ± 0.054 | 2.72 ± 0.048
ELIVSEEIPINSSEQES [SIR3] | 2.28 ± 0.054 | 2.24 ± 0.051 | 2.82 ± 0.053 | 2.18 ± 0.037
ELKKKRKIKRLEKFLQG [SRP72] | 3.22 ± 0.073 | 3.24 ± 0.091 | 3.19 ± 0.09 | 3.25 ± 0.049
ELQKIWQIEEAGNSQIT [SRB5] | 2.77 ± 0.08 | 3.04 ± 0.11 | 3.08 ± 0.048 | 3.05 ± 0.066
ELQKIYDRHQSSSKQQS [SMC4] | 3.33 ± 0.084 | 3.33 ± 0.095 | 3.35 ± 0.08 | 3.57 ± 0.051
ELRSLSKKDFKIIDNPK [YMR129W/POM152] | 2.46 ± 0.058 | 2.6 ± 0.06 | 2.24 ± 0.081 | 2.93 ± 0.07
ELSKEEKERLESLTKEI [SMC3] | 3.01 ± 0.13 | 3.13 ± 0.15 | 3 ± 0.059 | 3.17 ± 0.077
ELSTDIILKTRQINKLI [SRB7] | 1.2 ± 0.13 | 1.19 ± 0.066 | 1.37 ± 0.23 | 1.2 ± 0.13
ELTKEEAMYKLQLASLQ [SMC3] | 2.89 ± 0.1 | 2.88 ± 0.068 | 2.55 ± 0.084 | 2.64 ± 0.053
